{"source": "patent US8357523B2", "about": "“Beta-glucosidase variant enzymes and related polynucleotides” (Codexis, Inc., priority 2009, dated 2013)", "experiment": "Glucose inhibition (glucose tolerance), cellobiose assay with cellobiose consumption determined by HPLC", "format": "biochemical", "details": "pH 5, 55° C.; glucose concentration at which enzyme activity is 50% of the activity with no glucose"}
{"molecule": "T2A + A5T + I14M + N79D + G127N + A143M + H145R + V159E + A198S + A207F + F211Y + I222A + S225C + Q508R + A3R + S73A + V177P + I2037-des[A647-L663] (protein) SARITQEGAAPAAMLHPEKWPRPATQRLIDPAVEKRVDALLKQLSVEEKVGQVIQGDIGTITPEDLRKYPLGAILAGGDSGPNGDDRAPPKEWLDLADAFYRVSLEKRPGHTPIPVLFGIDAVHGHNNIGSATIFPHNIALGMTRDPELLRRIGEVTAEEMAATGIDWTFAPALSVPRDDRWGRTYEGFSEDPEIVASYSAAYVEGFQGKYGSKDFMAPGRAVACAKHFLADGGTDQGRDQGDARISEDELIRIHNAGYPPAIDAGVLTVMASFSSWQGIKHHGHKQLLTDVLKGQMGFNGFIVGDWNAHDQVPGCTKFNCPTSLIAGLDMYMAADSWKQLYENTLAQVKDGTIPMARLDDAVRRILRVKVLAGLFEKPAPKDRPGLPGLETLGSPEHRAVGREAVRKSLVLLKNDKGTLPLSPKARVLVAGDGADNIGKQSGGWTISWQGTGNRNDEFPGATSILGGIRDAVADAGGSVEFDVAGQYKTKPDVAIVVFGEEPYAEFRGDVETLEYQPDQKQDLTLLKKLKDQGIPVVAVFLSGRPMWVNPELNASDAFVAAWLPGTEGGGVADVLFTDKAGKVQHDFAGKLSYSWPRTAAQTTVNRGDADYNPLFAYGYGLTYKDKSKVGTLPEESGVPAEARQN", "values": [{"measurement": "IC50 for glucose", "value": "greater than 100 g/l"}]}
